Blank lines part the entries; values can stand above or below the molecule they belong to.
What was measured:
[1] = system: TCF reporter in 293T cells; assay: TCF reporter activity in DISC1 knockdown 293T cells with Wnt3a conditional medium; type: cell-based; conditions: 16 hours
Protocol: Primary neural stem cells from E14 brains were infected with control or DISC1 shRNA lentiviruses. 48 hours after to transduction, cells were treated with vehicle or SB-216763 (5 μM) for 16 hours and then pulsed with 10 μM BrdU for 2 hours. Shown is percentage of GFP and BrdU double positive cells to total GFP positive cells (n=3, p<0.05). b. […] 1.5 μg of vector or WT-DISC1 was cotransfected with 0.5 μg control or DISC1 shRNA-2, 0.1 μg TCF reporter, and 10 ng pRL-TK vector into 293T cells. 48 hours after transfection, Wnt3a conditional medium with vehicle, SB-216763, or AR-A104418 was added for another 16 hours.
• Mice. Swiss Webster pregnant female mice were purchased from Taconic (Hudson, N.Y.). • Cell Culture. AHPs were kindly provided by Dr. Gage (Lie, D. C. et al. Wnt signaling to regulates adult hippocampal neurogenesis. Nature 437, 1370-5 (2005)) and cultured under conditions described previously (Palmer, T. D., Takahashi, J. & Gage, F. H. The adult rat hippocampus contains primordial neural stem cells. Mol Cell Neurosci 8, 389-404 (1997)). Primary neural progenitors were isolated from E14 mouse embryos and cultured as described previously (Sanada, K. & Tsai, L. H. G protein betagamma subunits and AGS3 control spindle orientation and asymmetric cell fate of cerebral cortical progenitors. Cell 122, 119-31 (2005)). N2a and 293T cells were cultured in DMEM medium containing 10% FBS, L-glutamine, and penicillin/streptomycin. Wnt3a expressing L cells and untransfected L cells were obtained from ATCC (Manassas, Va.). Wnt3a conditional medium was produced according to the ATCC protocol. To induce AHP differentiation, FGF2 was removed from the culture medium and 1 μM retinoic acid/1% FBS was added to the medium for 4 days. • Reagents. Recombinant Wnt3a protein was obtained from Chemicon (Rosemont, Ill.). FGF2 was obtained from PeproTech (Rocky Hill, N.J.). Recombinant GST-GSK3β was obtained from Active Motif (Carlsbad, Calif.). Recombinant GST-β-catenin and GST-axin were obtained from Millipore (Billerica, Mass.). […]

GSK3β [2] = target: T1, GSK3β (Homo sapiens, UniProt P49841); assay: GSK3β SPR (surface plasmon resonance) binding assay; conditions: for percent theoretical maximal response (binding to GSK3β): concentration of 25 μM
T1 construct: GST; purchased Active Motif (Carlsbad, Calif.)
T1 sequence (P49841 whole entry): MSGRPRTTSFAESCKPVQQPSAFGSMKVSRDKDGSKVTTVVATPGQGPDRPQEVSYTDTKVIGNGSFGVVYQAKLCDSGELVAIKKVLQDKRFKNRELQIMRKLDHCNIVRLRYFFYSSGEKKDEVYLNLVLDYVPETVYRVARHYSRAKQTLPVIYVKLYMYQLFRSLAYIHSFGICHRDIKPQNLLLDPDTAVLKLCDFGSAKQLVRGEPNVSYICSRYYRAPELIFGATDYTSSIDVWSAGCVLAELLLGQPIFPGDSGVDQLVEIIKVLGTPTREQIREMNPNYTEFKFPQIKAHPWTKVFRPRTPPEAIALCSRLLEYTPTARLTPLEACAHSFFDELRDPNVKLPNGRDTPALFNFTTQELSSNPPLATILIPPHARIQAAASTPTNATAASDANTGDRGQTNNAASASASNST
Protocol: FIG. 16B is a schematic of overlapping 15-mer peptides that covered peptide 2 and a graph showing the ability of the peptides to bind to GSK3β.
Surface plasmon resonance (SPR) was used to determine whether peptide 2 directly binds to GSK3β. GSK3β SPR binding assays were carried out with peptide 1, peptide 2, the GSK3β inhibitor L803-MTS, and as a negative control, a peptide from the N-type calcium channel, CACNA1B (FIG. 6A). […] To identify the peptide 2 sequences that mediate this interaction with GSK3β, we designed overlapping 15-mer peptides that covered peptide 2 and tested their binding to GSK3β SPR (FIG. 16B).

GSK3β [3] = target: T1, GSK3β; assay: GSK3β in vitro kinase assay (β-catenin/axin phosphorylation, Y216 autophosphorylation); type: biochemical; conditions: for inhibition of GSK3β kinase activity by peptides / inhibition of GSK3β: in vitro kinase assay; for inhibition of GSK3β kinase activity by peptides: dose-response or comparison
From the text: (§1) • Mice. Swiss Webster pregnant female mice were purchased from Taconic (Hudson, N.Y.). • Cell Culture. AHPs were kindly provided by Dr. Gage (Lie, D. C. et al. Wnt signaling to regulates adult hippocampal neurogenesis. Nature 437, 1370-5 (2005)) and cultured under conditions described previously (Palmer, T. D., Takahashi, J. & Gage, F. H. The adult rat hippocampus contains primordial neural stem cells. Mol Cell Neurosci 8, 389-404 (1997)). Primary neural progenitors were isolated from E14 mouse embryos and cultured as described previously (Sanada, K. & Tsai, L. H. G protein betagamma subunits and AGS3 control spindle orientation and asymmetric cell fate of cerebral cortical progenitors. Cell 122, 119-31 (2005)). N2a and 293T cells were cultured in DMEM medium containing 10% FBS, L-glutamine, and penicillin/streptomycin. Wnt3a expressing L cells and untransfected L cells were obtained from ATCC (Manassas, Va.). Wnt3a conditional medium was produced according to the ATCC protocol. To induce AHP differentiation, FGF2 was removed from the culture medium and 1 μM retinoic acid/1% FBS was added to the medium for 4 days. • Reagents. Recombinant Wnt3a protein was obtained from Chemicon (Rosemont, Ill.). FGF2 was obtained from PeproTech (Rocky Hill, N.J.). Recombinant GST-GSK3β was obtained from Active Motif (Carlsbad, Calif.). Recombinant GST-β-catenin and GST-axin were obtained from Millipore (Billerica, Mass.). The GSK313 inhibitor, SB-216763, AR-A104418 and His-GSK3β, were obtained from Sigma-Aldrich (Sigma-Aldrich, St. Louis, Mo.). L803-MTS was obtained from Calbiochem (San Diego, Calif.). GST-AKT1 was obtained from Cell Signaling (Beverly, Mass.). GST-CASK-1 (CASK fragment from 316-415aa), GST-CASK-2 (CASK fragment from 777-974aa), and GST-p25 proteins were kindly provided by Dr. B. A. Samuels. Mouse DISC1 peptidel (40-78aa: GYMRSTAGSG IGFLSPAVGMPHPSSAG LTGQQSQHSQS; SEQ ID NO: 1) and Mouse DISC1 peptide 2 (195-238aa, […] GERGEAEGCLPSREAE; SEQ ID NO: 2) were synthesized by Chi Scientific (Maynard, Mass.). • Antibodies. The primary antibodies used in this study were the following: rabbit anti-DISC1 C-terminal antibody, mouse and rabbit anti-GFP antibodies (Invitrogen, Carlsbad, Calif.); affinity purified rabbit anti-DISC1 antibody (Novus, Littleton, Colo.) for immunohistochemistry; mouse anti-FLAG and mouse anti-Actin antibody; mouse anti-GSK3β antibody, mouse anti-β-catenin antibody, mouse anti-pY216 GSK3β antibody, and mouse anti-nestin antibody (BD Biosciences, San Diego, Calif.); rabbit anti-[…] β-catenin antibody, rabbit anti-pS9 GSK3β antibody, and mouse anti-cyclin to D1 antibody (Cell Signaling); mouse anti-Dv12 antibody, mouse anti-HA antibody, mouse anti-GST antibody, mouse anti-ubiquitin antibody, and rabbit anti-β-catenin antibody (Santa Cruz, Santa Cruz, Calif.); mouse Tuj-1 antibody (BABCO, Harrisburg, Pa.); mouse anti-BrdU antibody (DakoCytomation, Glostrup, Denmark); guinea pig anti-doublecortin antibody (Chemicon, Rosemont, Ill.); chicken anti-GFP antibody (Ayes Labs, Tigard, Oreg.); rabbit anti-pS10 Histone H3 antibody (Upstate, Lake Placid, N.Y.). • Constructs. The sequences for shRNAs targeting DISC1 are as follows: control shRNA: 5′-CGGCTGAAACAAGAGTTGG-3′ (SEQ ID NO:3); DISC1 shRNA-1: 5′-GGCAAACACTGTGA AGT GC-3′ (SEQ ID NO:4); DISC1 shRNA-2: 5′-[…]-3′ (SEQ ID NO:5)(Kamiya A. et al. A schizophrenia-associated mutation of DISC1 perturbs cerebral cortex development. Nat. Cell Biol 7, 1167-78 (2005)). DISC1 shRNA-1 recognizes both rat and mouse DISC1. […]

AHPs = assay: Immunoblot of β-catenin and cyclin D1 in transduced AHPs; type: cell-based
From the text: • Mice. Swiss Webster pregnant female mice were purchased from Taconic (Hudson, N.Y.). • Cell Culture. AHPs were kindly provided by Dr. Gage (Lie, D. C. et al. Wnt signaling to regulates adult hippocampal neurogenesis. Nature 437, 1370-5 (2005)) and cultured under conditions described previously (Palmer, T. D., Takahashi, J. & Gage, F. H. The adult rat hippocampus contains primordial neural stem cells. Mol Cell Neurosci 8, 389-404 (1997)). Primary neural progenitors were isolated from E14 mouse embryos and cultured as described previously (Sanada, K. & Tsai, L. H. G protein betagamma subunits and AGS3 control spindle orientation and asymmetric cell fate of cerebral cortical progenitors. Cell 122, 119-31 (2005)). N2a and 293T cells were cultured in DMEM medium containing 10% FBS, L-glutamine, and penicillin/streptomycin. Wnt3a expressing L cells and untransfected L cells were obtained from ATCC (Manassas, Va.). Wnt3a conditional medium was produced according to the ATCC protocol. To induce AHP differentiation, FGF2 was removed from the culture medium and 1 μM retinoic acid/1% FBS was added to the medium for 4 days. • Reagents. Recombinant Wnt3a protein was obtained from Chemicon (Rosemont, Ill.). FGF2 was obtained from PeproTech (Rocky Hill, N.J.). Recombinant GST-GSK3β was obtained from Active Motif (Carlsbad, Calif.). Recombinant GST-β-catenin and GST-axin were obtained from Millipore (Billerica, Mass.). The GSK313 inhibitor, SB-216763, AR-A104418 and His-GSK3β, were obtained from Sigma-Aldrich (Sigma-Aldrich, St. Louis, Mo.). L803-MTS was obtained from Calbiochem (San Diego, Calif.). GST-AKT1 was obtained from Cell Signaling (Beverly, Mass.). GST-CASK-1 (CASK fragment from 316-415aa), GST-CASK-2 (CASK fragment from 777-974aa), and GST-p25 proteins were kindly provided by Dr. B. A. Samuels. Mouse DISC1 peptidel (40-78aa: GYMRSTAGSG IGFLSPAVGMPHPSSAG LTGQQSQHSQS; SEQ ID NO: 1) and Mouse DISC1 peptide 2 (195-238aa, […] GERGEAEGCLPSREAE; SEQ ID NO: 2) were synthesized by Chi Scientific (Maynard, Mass.). • Antibodies. […]

[4] = system: neural progenitors in embryonic mouse brains; assay: In utero electroporation of shRNA into E13 embryonic mouse brains; type: in vivo
From the text: as §1

[5] = electroporated at E13, analyzed 3 days later

Molecule: COc1ccc(CNC(=O)Nc2ncc([N+](=O)[O-])s2)cc1 [AR-A014418]
TCF reporter activity in DISC1 knockdown cells [1]: rescued TCF activity in DISC1 knockdown cells to control levels
TCF reporter activity in DISC1 knockdown cells ([1]; listed as AR-A104418): rescues the TCF activation defect caused by DISC1 knockdown

Molecule: peptide 3: 15-mer peptide that encompasses mDISC1 amino acids 211 to 225 (SFSFIQLSLGAAGER; listed as Mus musculus)
percent maximal binding to GSK3β (GSK3β [2]; 15-mer peptide): 238%
binding to GSK3β (GSK3β [2]; result in words): bound to GSK3β
inhibition of GSK3β kinase activity by peptides (GSK3β [3]; no single concentration): failed to inhibit GSK3β kinase activity

Molecule: peptide 2: Mouse DISC1 peptide, 195-238aa, PADIASLPGFQDTFTSSFSFIQLSLGAAGERGEAEGCLPSREAE, SEQ ID NO: 2 (listed as Mus musculus)
percent theoretical maximal response (binding to GSK3β) (GSK3β [2]): 197%
inhibition of GSK3β (GSK3β [3]; at 1 μM): did not inhibit GSK3β
inhibition of GSK3β (GSK3β [3]; at 10 μM): inhibited GSK3β
inhibition of GSK3β kinase activity by peptides (GSK3β [3]; no single concentration): inhibited GSK3β more potently than the commercial GSK3β peptide inhibitor, L803-MTS
inhibition of GSK3β kinase activity by peptides (GSK3β [3]; no single concentration, listed as DISC1 peptide 1(195-238aa)): dose-dependent
inhibition of GSK3β kinase activity by peptides (GSK3β [3]; no single concentration, listed as Peptide 195-238): inhibited GSK3β in a dose-dependent manner more potently than the commercial peptide inhibitor, L803-MTS

Molecule: DISC1 shRNA-2: shRNA targeting human, rat and mouse DISC1, SEQ ID NO:5, in pLentiLox 3.7 vector (GCAGGAGGTCAGCAAGGCCTTG)
reduction of Cyclin D1 levels (AHPs): 70%
β-catenin levels (AHPs): 19 % to control
BrdU labeling ([4]; BrdU 2 hours prior to collection): 15.9±2.2%
cell cycle exit index ([4]; electroporated E13, BrdU at E15, collected E16): 66.5±13.2%
GFP+Dcx+ cells ([4]; electroporated E13, sacrificed E16, SVZ): 42.3±5.8%
GFP positive cells in the VZ/SVZ [4, 5]: 10%
GFP positive cells in the cortical plate [4, 5]: 62%
mitotic index ([4]; pH3, electroporated E13, sacrificed E15): 3.5±0.8%

Molecule: peptide 1: Mouse DISC1 peptide, 40-78aa, SEQ ID NO: 1, synthesized by Chi Scientific (GYMRSTAGSGIGFLSPAVGMPHPSSAGLTGQQSQHSQS; listed as Mus musculus)
percent theoretical maximal response (binding to GSK3β) (GSK3β [2]): 62%
inhibition of GSK3β (GSK3β [3]; at 80 μM): did not inhibit GSK3β
inhibition of GSK3β kinase activity by peptides (GSK3β [3]; no single concentration): did not inhibit GSK3β activity

inhibition of GSK3β activity by DISC1 fragments (GSK3β [3]; no single concentration, dose dependence, rank): able to inhibit GSK3 activity
B1: DISC1 fragment 221-355: GST-tagged mouse DISC1 protein fragment, amino acids 221-355 (protein, UniProt Q811T9 221-355, looked up, fragment)
chain: AAGERGEAEGCLPSREAEPLHQRPQEMAAEASSSDRPHGDPRHLWTFSLHAAPGLADLAQVTRSSSRQSECGTVSSSSSDTGFSSQDASSAGGRGDQGGGWADAHGWHTLLREWEPMLQDYLLSNRRQLEVTSLI
modifications: GST tag
inhibition of GSK3β autophosphorylation (Y216) (GSK3β [3]; GST-DISC1 fragments at 2 μM): started to inhibit GSK3β autophosphorylation
